The record followed here is a protein production outcome set (Wang et al. 2014).

The nature of this data set: label from the status in PepcDB records.
As to “MVNGSPHEKGCTYTALTEVAKTLNEEGIDTEIFWIGKKPLTGCTACKSCTKTGRCAFNDRANDFLDIAKGADGFIFGSPVHYASATGAITSFMDCVFYSDLLGGRQSFYLKPAATVISARRAGTTTTFDQLNKYFTLSEMPVISSRYWNMVHGAKPEDVKKDLEGLQIMRVLARNMAWFLKCKEAGMKAGVPLPVKEERMSTNFIRE”, the protein production result was “failed”.

Regarding “MTHPATVYSLSTRLLHWSMAFCFIGAIVLAYFVIWVLGHDHPQRLPVLNLHWVLGLLVGLLLVPRIVSRLRGPRLPAVPGTPLEHRLAHYAHLSLYALMLVMPLTGYVGTRLPTDFGLFVVPSFKDTALFAWISQTLNLSWEAFEKPFDAVHRVVGLWLSTSVVLLHALAAGYHQWVRRDGTLERMLGRRQRR”, the protein production result is “failed”.

Consider “MDLDVYVSAHRAEWDRLDDLLRRRRRLTGAEADELVALYQRTATHLSVIQSSAPDPQLTGRLSQLVARARSAVTGTRRASWRDVTRFLAYGFPAAVYRARHWWVPTALLSTVTAVLLGWWIGTHPEVQSSIAAPSELRALTRPGGEYETYYSSHPAASFAAQVWTNNAQAAAMCLVLGIFLGLPVLWILFQNMLNLGVGLGLMSSAGRLDTFLGLVLPHGLLELTAVFVAAGTGLRLGWTLIDPGPRSRRTALAEEGRAALGMAVGLALVLFVSGAIEGFVTPSGLPTWARIGIGIAAELAFLTYVYVLGGRATRAGDTGDIEAAERSATVPTAA”, for which the protein production result was “failed”. The entry for “MRVGIKVLGCPKNEADCEVLAGVLREGGHEIVFDVKDADVVVLDTCAFIEDAKRESIDEIFSFVDAKDQYGYKLVVKGCLVQRYYEELKKEIPEVDQWIGVADPEEIANAIENGTDLVPDQPETVYRYRKRIDLEERPYAYVKISDGCDRGCTFCSIPSFKGSLRSRSIEDITREVEDLLKEGKKEIILVAQDTTSYGIDLYRKQALPDLLRRLNSLNGEFWIRVMYLHPDHLTEEIISAMLELDKVVKYFDVPVQHGSDKILKLMGRTKSSEELKKMLSSIRERFPDAVLRTSIIVGFPGETEEDFEELKQFVEEIQFDKLGAFVYSDEEGTVAFNLKEKVDPEMAKRRQEELLLLQAEISNSRLDRFVGKKLKFLVEGKEGKFLVGRTWTEAPEVDGVVFVRGKGKIGDFLEVVIKEHDEYDMWGSVILEHHHHHH” is “not failed”; for “MCKHILGKGYVDGVIEADEVFFTESFKGTKPSNMPRRSRKIGKQVKKSGISKEQVCITTAIDRQGNLIMELACKGRITSKELEKLYDGHISNESILCTDSRKSYIQFANDLSLEHKRIKRGKHKEGLYHIQHINVLHSNLRKWMNRFNGAATKYISNYIKWFKWLQIFDTHKEIIKAKNFIVQSNVAHAYIKVKDLKYREPICV” it is “failed”; for “MEDLLVVGQIINTHGLRGEMKVMPLTEDMRRFDYLEYVILKGKKVKVEGVKYFKDKVILKLEGINSIEEAEKLKRTYLEIEREDAIELEEDEYFIVDLVGCTVVDTEGFEYGKIKDVIQTPSNDVYWVQGKKEVLVPVLKDIVLDINMDEKLITIRPSGEWQYEDLEHHHHHH” it is “failed”.

“KMPSPYSHKEFVKEIAPTAQKLSKIYGVRSSIIIGQAALDSHFGSTLLASKYHNLFSIEASPGQGAVRLKSHEYKNGRWQEVTNRYLVYESWKESLYDYMAILHGNKIWDKALYTTMMTSSGYKTVARALQAAGFNSDPNYADKLIAVIEENNL”: the protein production result is “not failed”. As for “STAFFFRRMSPADKRKLLDELRSIYRTIVLEYFNTDAKVNERIDEFVSKAFFADISVSQVLEIHVELMDTFSKQLKLEGRSEDILLDYRLTLIDVIAHLCEMYRRSIPREV”, the entry is “not failed”; as for “MIFASDLDQTLIYSRKSFRAHIEDNSIQLIETLDGKEISFITYKTITLLIKLQLHSYFIPVTTRTIEQFQRITLFQNEIIPEYAITSNGGNILHNGKQDVTWNKEIKKRISVECIERNDILKEFEQIAHKDWVISQKTADDLFHYCIIKRENIPYDELSSFTSWLDKQGWNHSLQGRKLYFVPKPINKWDAVQYIQEILQMDTIITAGDSLLDLCMLEKANYAFAPLHGELGATYNHLQPHIVKTDAIGIYAAEEIVSKSLQIIHSSSPTS”, “failed”. The entry for “MSETTQTSQSLYQALWNSADVLRSKMDANDYKSYLLGMVFYKYLSDKMLFFVAETMEEETESLDEALAVYRKYYEDEETHEDLLAVITDEMSYAIHPDLTFTALVERVNDGSFQLEDLAQGFRDIEQSDELYENLFEDIDLYSKKLGATPQKQNQTVAAVMKELAVLDVAGHAGDMLGDAYEYLIGQFATDSGKKAGEFYTPQPVAKLMTQIAFLGREDKQGFTLYDATMGSGSLLLNAKRYSRQPQTVVYFGQELNTSTYNLARMNMILHGVPIENQFLHNADTLDEDWPTQEPTNFDGVLMNPPYSAKWSASSGFMDDPRFSPFGKLAPKSKADFAFLLHGYYHLKQDNGVMAIVLPHGVLFRGNAEGTIRKALLEEGAIDTVIGLPANIFFNTSIPTTVIILKKNRTNRDVYFIDASKEFDKGKNQNIMTDAHIEKILNAYKSREDIDKFAHLASFEEIVENDYNLNIPRYVDTFEEEEVEPLTEIVAKINQTNATIESQTASLLDMLGQLHGTTPEADEELKAFVKAFKGLEHHHHHH” is “failed”; for “MHLRLRTKNGLITITVSQQCTIRELSEEIERKTGIEVAKQKILYGFPQRELRADADKPVESVLQSGDSLTVDKLSAETEQERTVESSPASTENAYVRRKVPDDNSCLFHAICYVFRSGSVAQLRHIISETVRLNPDLYTEAFLGKSNHEYSRWILLPETWGGAIELSILSKYFQTEISVFDIQTLRLDRYGEAENYEERVFLLYDGIHYDPIARAFLGASREYDVTVFKIWDNEALVGAKSVAEEANKNRQYTDLASFTLMCRNCGAKLKGETSAVEHAKQTGHTNFTEA” it is “failed”. As for “MASGQGPGPPRQECGEPALPSASEEQVAQDTEEVFRSYVFYRHQQEQEAEGVAAPADPEMVTLPLQPSSTMGQVGRQLAIIGDDINRRYDSEFQTMLQHLQPTAENAYEYFTKIATSLFESGINWGRVVALLGFGYRLALHVYQHGLTGFLGQVTRFVVDFMLHHCIARWIAQRGGWVAALNLGNGPILNVLVVLGVVLLGQFVVRRFFKS”, the entry is “not failed”.

On to “SNKLYIGNLSPAVTADDLRQLFGDRKLPLAGQVLLKSGYAFVDYPDQNWAIRAIETLSGKVELHGKIMEVDYSVSKKLRSRKIQIRNIPPHLQWEVLDGLLAQYGTVENVEQVNTDTETAVVNVTYATREEAKIAMEKLSGHQFENYSFKISYIPDEEVSSPSPPQRAQRGDHSSREQGHAPGGTSQARQIDFPLRILVPTQFVGAIIGKEGLTIKNITKQTQSRVDIHRKENSGAAEKPVTIHATPEGTSEACRMILEIMQKEADETKLAEEIPLKILAHNGLVGRLIGKEGRNLKKIEHETGTKITISSLQDLSIYNPERTITVKGTVEACASAEIEIMKKLREAFENDMLAVNQQANLIPGLNLSALGIFSTGLSVLSPPAGPRGAPPAAPYHPFTTHSGYFSSLYPHHQFGPFPHHHSYPEQEIVNLFIPTQAVGAIIGKKGAHIKQLARFAGASIKIAPAEGPDVSERMVIITGPPEAQFKAQGRIFGKLKEENFFNPKEEVKLEAHIRVPSSTAGRVIGKGGKTVNELQNLTSAEVIVPRDQTPDENEEVIVRIIGHFFASQTAQRKIREIVQQVKQQEQKYPQGVASQRSK”, for which the protein production entry was “not failed”.

For “MKTKYIIASLGLATLLSFGANAAVHQVNAEQAQNLQPMGTISVSQIGSTPMDMRQEIVAKAEKAGANSYRIIELKEGDNWHATAELYKLEHHHHHH”, the protein production result is “failed”. As for “MPKLDRYLLSDFTQSFLATLIVLLVVSVGGVLVDILGNIADGRIPARLLLSQVGLQFVAYLPIILPLALMLGLLLALARLYRDSEMAVITAIGVGPTRMLRPLLMLVVPVVVVIGLCSLWLGPWASRTAEAMLEDANRSVLMAGLESGQFTPLSDGGVVYMQTISADGKGLGKIFLQRQQNDRIDVVTADRGALFFEGKTDRYLHLDDGYRTEGPAGGATLDYRLMKFASSDIALPDRTRLHDANDPEVMWTTQLLSDERPAARAQLHERLAPPLLALAFAMLTLPLSRSAPRQQRYGRIMLAFLAYMVGTNLMIVGTQWIANGKAPAALGLWWLTLPLLAVAVWAYARDGRVRRPRARA”, the entry is “failed”.
